In patent US11352399B2, “Peptide for toll-like receptor (TLR) inhibition and pharmaceutical composition comprising same” (GENESEN CO., LTD., priority 2017, dated 2022):
Primed or numbered codes have the meaning given here. Ends that are not written are not given here. FITC′ = fluorescein isothiocyanate

Experiments:
[1] = biological target: T1, hTLR4 (human TLR4) (Homo sapiens, UniProt O00206); test: SEAP activity (NF-κB activity) in HEK-Blue-hTLR4 cells; assay type: cell-based; details: for NF-κB activity (SEAP activity): together with LPS, FIG. 12(a); for SEAP activity, CPP sequence not linked: 12.5, 25, 50 μM, FIG. 1(b)
T1 construct: host or cells: HEK-Blue-hTLR4 (HEK293-derived reporter line)
Protocol: HEK-Blue™-hTLR4 cells were dispensed into 24-well plates (BD Biosciences) to a cell number of 2×10^5 cells/well, and incubation was performed overnight. The next day, the culture was removed and medium replacement was performed. Then, a portion (200 μl) of the culture was transferred to a microcentrifuge tube and heated at 65° C. for 10 minutes using a heating block (FINEPCR. Co., Seoul, Korea). Subsequently, the culture was transferred to 96-well plates (BD Biosciences), and absorbance was measured at 405 nm using the HEK-Blue™ detection kit (InvivoGen) and a microplate reader spectrophotometer (Molecular Devices Inc., Silicon Valley, Calif., USA), to analyze an expression level of SEAP (secreted alkaline phosphatase).
To this end, the inducible secreted embryonic alkaline phosphatase (SEAP) reporter gene was placed under the control of an IL-12 p40 minimal promoter (IL-12 p40 is produced by activation of NF-κB and AP-1 (activator protein 1) after stimulation of TLR4) which contains sites where DNAs of NF-κB and AP-1 bind. Then, HEK-Blue™-hTLR4 cells were treated with varying concentrations of TIP or TIP (TIP W/O CPP), to which CPP is not linked, at 12.5, 25, 50 μM, and then an average value of SEAP activity was calculated to measure TLR4 activity. The results are illustrated in FIGS. 1(a) and 1(b).
The results are illustrated in FIGS. 12(a) and 12(b).

[2] = test system: hPBMC cells; test: NO secretion in LPS-treated hPBMC cells; assay type: cell-based, human; details: together with LPS, FIG. 12(b)
[3] = biological target: T2, MyD88 (Homo sapiens, UniProt Q99836); test: Confocal microscopy of TIP1-FITC and MyD88 in THP1 cells; assay type: cell-based; details: TIP1-FITC and LPS
T2 construct: endogenous in cells; host or cells: THP1
Protocol: (§1) RAW 264.7 cells and THP1 cells were dispensed into 24-well plates to a cell number of 2×10^5 cells/well, and then grown in an incubator overnight. Subsequently, combined treatment with TIP1 and LPS was performed. After 24 hours, the RAW 264.7 cells and the THP1 cells were fixed with 3.7% formaldehyde (Sigma-Aldrich Co. LLC) for 15 minutes, and immersed into 0.2% Triton X-100 (AMRESCO, Solon, Ohio, USA) for 15 minutes. Then, washing with PBS was performed three times and blocking with 2% BSA solution was performed. The blocked cells were incubated for 2 hours with TIP1-FITC (25 μM; Peptron, Inc., Daejeon, Korea), p-p65, TLR4, Myd88, TOM20 (1:1000; Santa Cruz Biotechnology Inc.), and NLRP3 (Adipogen) antibodies. Then, washing with PBS was performed three times. Subsequently, the cells were incubated with AlexaFluor […] and/or 488 and/or 546-conjugated secondary antibodies (Invitrogen, Carlsbad, Calif., USA) for 1 hour, and washed three times with PBS. Subsequently, the cells were stained at room temperature for 15 minutes using 5 μM Hoechst 33258 (Sigma-Aldrich Co.), and the number of the fluorescently stained cells was counted using a confocal laser scanning microscope (LSM-700, Carl Zeiss MicroImaging GmbH). The images were analyzed using Zen 2009 software.
(§2) The results are illustrated in FIG. 13.

[4] = biological target: T3, TLR4 (Homo sapiens, UniProt O00206); test: Confocal microscopy of TIP1-FITC and TLR4 in THP1 cells; assay type: cell-based; details: TIP1-FITC and LPS
T3 construct: endogenous in cells; host or cells: THP1
Protocol: as §1, §2

T1 sequence (O00206 24-839): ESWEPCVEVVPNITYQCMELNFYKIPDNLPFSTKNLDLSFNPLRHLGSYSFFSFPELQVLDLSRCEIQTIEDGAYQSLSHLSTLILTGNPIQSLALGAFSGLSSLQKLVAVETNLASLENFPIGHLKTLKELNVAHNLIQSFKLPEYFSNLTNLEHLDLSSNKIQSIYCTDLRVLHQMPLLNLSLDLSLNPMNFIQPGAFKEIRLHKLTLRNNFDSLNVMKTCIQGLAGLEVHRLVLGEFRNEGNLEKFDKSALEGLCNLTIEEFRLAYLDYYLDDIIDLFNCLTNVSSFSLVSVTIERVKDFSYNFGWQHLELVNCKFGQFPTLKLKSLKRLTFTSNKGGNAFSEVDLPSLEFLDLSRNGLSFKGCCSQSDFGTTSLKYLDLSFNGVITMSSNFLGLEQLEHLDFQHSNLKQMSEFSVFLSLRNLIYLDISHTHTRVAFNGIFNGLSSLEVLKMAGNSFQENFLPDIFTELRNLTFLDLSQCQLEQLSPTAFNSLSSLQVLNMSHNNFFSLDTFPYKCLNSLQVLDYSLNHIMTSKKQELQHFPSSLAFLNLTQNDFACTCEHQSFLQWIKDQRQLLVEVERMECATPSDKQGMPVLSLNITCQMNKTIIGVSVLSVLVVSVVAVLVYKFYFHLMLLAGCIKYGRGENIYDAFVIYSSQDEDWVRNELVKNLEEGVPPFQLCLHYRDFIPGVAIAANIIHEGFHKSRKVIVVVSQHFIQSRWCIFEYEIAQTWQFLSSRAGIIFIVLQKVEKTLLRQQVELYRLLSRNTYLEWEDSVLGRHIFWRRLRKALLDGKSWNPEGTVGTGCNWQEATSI
T1 sequence (Q9Y6Y9 17-160 partner limits assumed): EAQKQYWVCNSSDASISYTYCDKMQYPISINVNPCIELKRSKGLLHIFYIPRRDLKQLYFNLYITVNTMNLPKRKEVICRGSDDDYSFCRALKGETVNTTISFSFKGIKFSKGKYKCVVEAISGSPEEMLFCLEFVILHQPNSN
T2 sequence (Q99836 whole entry): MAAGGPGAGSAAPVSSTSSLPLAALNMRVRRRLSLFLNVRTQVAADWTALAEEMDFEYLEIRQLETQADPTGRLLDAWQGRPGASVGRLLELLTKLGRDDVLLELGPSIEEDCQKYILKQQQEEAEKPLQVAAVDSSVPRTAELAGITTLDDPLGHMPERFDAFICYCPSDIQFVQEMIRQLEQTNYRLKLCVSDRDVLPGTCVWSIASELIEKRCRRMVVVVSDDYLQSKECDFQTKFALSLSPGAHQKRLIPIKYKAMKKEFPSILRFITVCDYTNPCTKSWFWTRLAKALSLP
T3 sequence (O00206 24-839): as the sequence (O00206 24-839) above

Substance | NF-κB activity (SEAP activity) [1] | NO secretion level [2] | SEAP activity, CPP sequence not linked [1] | further results
RQIKIWFQNRRMKWKKSHCR (TIP1-2) | also decreased NF-κB activity | also inhibited NO secretion | – | –
RQIKIWFQNRRMKWKKTIPLLS (TIP2) [used as a control] | – | – | – | LPS-induced SEAP activity ([1]; TIP 12.5, 25, 50 μM, then LPS, FIG. 1(a)): unlike TIP2, TIP1 decreased LPS-induced SEAP activity
RQIKIWFQNRRMKWKKVLLI (TIP1-3) | no or insignificant changes were observed | no or insignificant changes were observed | – | –
SHCRVLLI (Decoy peptide 1) [TIP1 W/O CPP] | – | – | neither TIP1 (TIP1 W/O CPP) nor TIP2 (TIP2 W/O CPP) changed SEAP activity | –
TIP1-FITC: TIP1 with fluorescein isothiocyanate (FITC) bound to the N-terminus ({FITC′}-RQIKIWFQNRRMKWKKSHCRVLLI) | – | – | – | interaction of TIP1-FITC with MyD88 [3]: formed a weak bond; interaction of TIP1-FITC with TLR4 [4]: strongly bound to each other
TIPLLS (Decoy peptide 2) [TIP2 W/O CPP] | – | – | neither TIP1 (TIP1 W/O CPP) nor TIP2 (TIP2 W/O CPP) changed SEAP activity | –
